B1: YFPN‐AQP0 of the recloned pair YFPN‐AQP0 + YFPC‐CaM* (hexa‐histidine tag moved away from the AQP0 moiety) (natural protein, human, UniProt P30301 1-263, looked up)
chain: MWELRSASFWRAIFAEFFATLFYVFFGLGSSLRWAPGPLHVLQVAMAFGLALATLVQSVGHISGAHVNPAVTFAFLVGSQMSLLRAFCYMAAQLLGAVAGAAVLYSVTPPAVRGNLALNTLHPAVSVGQATTVEIFLTLQFVLCIFATYDERRNGQLGSVALAVGFSLALGHLFGMYYTGAGMNPARSFAPAILTGNFTNHWVYWVGPIIGGGLGSLLYDFLLFPRLKSISERLSVLKGAKPDVSNGQPEVTGEPVELNTQAL
notes: aquaporin 0 (AQP0), human; gene codon optimized for yeast (Genscript); As m1 but without the His tag; The purified complex is read by its size (about 500 kDa) as an octameric form of the aquaporin; also called hAQP0; source: S. cerevisiae, co-expressed with YFPC-CaM*, purified as a complex (DDM-solubilised membranes, Ni-NTA, SEC); not shown: YFPN (SYFP2 amino acids 1 to 154, linker KQKVMNH), …
B2: isolated AQP0 (expressed and purified separately) (natural protein, human, UniProt P30301 1-263, looked up)
chain: MWELRSASFWRAIFAEFFATLFYVFFGLGSSLRWAPGPLHVLQVAMAFGLALATLVQSVGHISGAHVNPAVTFAFLVGSQMSLLRAFCYMAAQLLGAVAGAAVLYSVTPPAVRGNLALNTLHPAVSVGQATTVEIFLTLQFVLCIFATYDERRNGQLGSVALAVGFSLALGHLFGMYYTGAGMNPARSFAPAILTGNFTNHWVYWVGPIIGGGLGSLLYDFLLFPRLKSISERLSVLKGAKPDVSNGQPEVTGEPVELNTQAL
notes: also called pure protein AQP0; source: expressed and purified separately

Tests used:
[1] = target: the molecule itself; test: pull-down + SEC; YFPN-AQP0 + YFPC-CaM* co-expressed in S. cerevisiae; membranes solubilised in DDM; HisTrap HP (Ni-NTA) by the His tag on YFPC-CaM*, eluted with 250 mM imidazole; then FSEC on Superose6 Increase (20 mM Tris-HCl pH 7.5, 100 mM NaCl, 5 mM CaCl2, 1% β-OG); fluorescent peak at 15 mL on SDS-PAGE (Coomassie), immunoblot with anti-AQP0 and anti-CaM
[2] = target: the molecule itself; test: SEC; isolated AQP0 alone on SEC

Protein	stoichiometry N [1]	stoichiometry N [2]
B1	8	–
B2	–	4
